These results are taken from paper PMC3465084 (Journal of medicinal chemistry, 2012).

A short description of data set [1]: Stability in aqueous solution. Format: physicochemical.
The subject of a further data set is J774 murine macrophages. Kind of data set: CD36 Macrophage Receptor Binding Competition Assay. As to conditions: competition with OxLDL binding.
The next data set has as its system mAb E06. Kind of data set: Binding of mAb E06 to compound 9. As to conditions: Figure S2, Supporting Information.
Another data set concerns CD36 scavenger receptor. The data set is described as follows: Competition for binding of CuOxLDL to the CD36 scavenger receptor. As to conditions: Figure S1, Supporting Information.
In the next data set the test system is macrophages. The following applies: at the concentrations used, even at room temperature for up to 72 hours; cell number or protein content, time course studies of cell function (data not shown).
A further data set is described as follows: Water solubility. Format: physicochemical.

Consider `CCCCCCCCCCCCCCCC(=O)OC[C@H](COP(=O)([O-])OCC[N+](C)(C)C)OC(=O)CCCCN(C)CCCC[C@H](NC(=O)[C@@H](NC(=O)CNC(=O)[C@@H](NC(C)=O)[C@@H](C)O)[C@@H](C)O)C(=O)NCC(=O)NCC(=O)O` [Compound 9, (4S,10S,13S,25R)-13-((2-((carboxymethyl)amino)-2-oxoethyl)carbamoyl)-4,10-bis((R)-1-hydroxyethyl)-18-methyl-2,5,8,11,23-pentaoxo-25-((palmitoyloxy)methyl)-24-oxa-3,6,9,12,18-pentaazahexacosan-26-yl-(2-(trimethylammonio)-ethyl) phosphate], for which the “stability in aqueous solution (in words)” value in data set [1] is listed as “stable”. In addition, in the data set with J774 murine macrophages, the “binding to macrophage scavenger receptors (in words)” value is listed as “binds to macrophage scavenger receptors”. Besides, the “binding of mAb E06 (in words)” value in the data set on mAb E06 is reported as “specifically binds”. In the data set on CD36 scavenger receptor, the “competition for the binding of CuOxLDL to the CD36 scavenger receptor (in words)” value is recorded as “competes with high affinity”. Besides, in the data set with macrophages, the “impact on viability of macrophages” value was “no impact”. Moreover, the “water solubility (in words)” value in “Water solubility” is “water soluble”.
